In PMC12302927, “Lactate-functionalized 3D-printed PCL/nHA scaffold drives BMSC osteogenesis via metabolic-epigenetic crosstalk” (Materials Today Bio, 2025):

How the values were obtained:
[1] = target: T1, wild-type STAT1, overexpressed (pLVX-STAT1-WT), lactylated in BMSCs on the PCL/nHA/SL scaffold (UniProt P42224 1-750, lysine lactylation, elevated 2.4-fold on the scaffold (Klac 0.797 ± 0.105); K193 named as the key lactylation site); test: co-IP; BMSC lysates, no osteogenic induction, 48h post-transfection; STAT1 antibody for pull-down with IgG control, Protein A/G agarose; blots probed for lactylation and Runx2; cells scaffold-free or on PCL/nHA/SL scaffold; band intensities quantified; conditions: partners not purified
T1 construct: STAT1, wild type; A mixture of lactylated and unmodified STAT1, overexpressed and endogenous; also called lactylated STAT1; scaffold-containing cells (+STAT1-OE); source: human BMSCs, lentiviral transduction (pLVX-STAT1-WT), cultured on PCL/nHA/SL scaffold, in lysate
T1 sequence (looked up): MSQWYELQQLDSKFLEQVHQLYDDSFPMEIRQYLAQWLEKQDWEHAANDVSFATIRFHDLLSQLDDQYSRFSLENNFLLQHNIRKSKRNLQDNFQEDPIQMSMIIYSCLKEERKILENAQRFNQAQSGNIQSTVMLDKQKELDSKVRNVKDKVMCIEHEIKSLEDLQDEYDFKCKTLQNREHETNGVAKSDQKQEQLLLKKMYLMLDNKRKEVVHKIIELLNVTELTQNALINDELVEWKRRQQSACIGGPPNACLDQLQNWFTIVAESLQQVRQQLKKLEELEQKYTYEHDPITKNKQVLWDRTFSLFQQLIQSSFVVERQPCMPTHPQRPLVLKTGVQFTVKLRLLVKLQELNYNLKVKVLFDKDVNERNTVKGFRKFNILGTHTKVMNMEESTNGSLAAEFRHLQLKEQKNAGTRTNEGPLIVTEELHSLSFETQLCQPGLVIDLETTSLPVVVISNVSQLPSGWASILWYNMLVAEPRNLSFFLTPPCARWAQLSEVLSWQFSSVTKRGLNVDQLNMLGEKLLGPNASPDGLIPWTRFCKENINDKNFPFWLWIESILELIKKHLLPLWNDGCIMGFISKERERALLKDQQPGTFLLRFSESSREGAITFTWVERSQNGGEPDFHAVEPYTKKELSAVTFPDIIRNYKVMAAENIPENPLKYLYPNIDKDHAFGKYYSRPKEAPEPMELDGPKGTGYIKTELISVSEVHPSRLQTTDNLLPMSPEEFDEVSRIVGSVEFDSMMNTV

[2] = target: T2, wild-type STAT1, overexpressed (pLVX-STAT1-WT), scaffold-free BMSCs (UniProt P42224 1-750); test: as above; conditions: partners not purified
T2 construct: STAT1, wild type; No tag is stated for this experiment (the rescue lentivirus of another experiment is HA-tagged); The anti-STAT1 antibody precipitates the endogenous STAT1 as well; Lactylation was low in these cells (0.327 ± 0.046); also called STAT1-OE; source: human BMSCs, lentiviral transduction (pLVX-STAT1-WT), scaffold-free, in lysate
T2 sequence (looked up): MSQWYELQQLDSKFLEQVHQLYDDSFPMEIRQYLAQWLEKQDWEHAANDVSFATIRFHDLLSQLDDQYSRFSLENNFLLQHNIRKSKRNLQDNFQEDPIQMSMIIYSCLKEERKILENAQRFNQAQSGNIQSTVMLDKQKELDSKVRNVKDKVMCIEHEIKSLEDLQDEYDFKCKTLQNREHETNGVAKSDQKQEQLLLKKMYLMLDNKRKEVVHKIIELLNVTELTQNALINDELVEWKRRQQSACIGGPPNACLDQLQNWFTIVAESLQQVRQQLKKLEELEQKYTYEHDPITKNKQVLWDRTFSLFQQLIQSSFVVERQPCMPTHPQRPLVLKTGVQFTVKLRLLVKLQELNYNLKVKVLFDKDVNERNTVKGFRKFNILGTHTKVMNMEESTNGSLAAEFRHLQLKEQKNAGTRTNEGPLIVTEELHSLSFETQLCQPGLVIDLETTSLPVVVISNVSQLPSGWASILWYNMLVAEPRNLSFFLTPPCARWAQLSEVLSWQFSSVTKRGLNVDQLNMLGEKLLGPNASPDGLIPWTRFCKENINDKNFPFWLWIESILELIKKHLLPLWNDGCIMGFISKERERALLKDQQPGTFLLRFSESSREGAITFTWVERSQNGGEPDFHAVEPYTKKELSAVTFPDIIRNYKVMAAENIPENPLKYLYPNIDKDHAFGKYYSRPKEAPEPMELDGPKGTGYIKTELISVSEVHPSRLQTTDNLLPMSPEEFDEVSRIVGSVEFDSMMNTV

[3] = target: T3, STAT1, endogenous in BMSCs (human (endogenous in BMSCs), UniProt P42224 1-750); test: as above; conditions: partners not purified
T3 construct: STAT1, endogenous in human bone marrow mesenchymal stem cells (ATCC PCS-500-012); STAT1 precipitated with anti-STAT1 antibody from scaffold-free Runx2-OE cells, which carry no STAT1 construct; source: endogenous, human BMSC lysate
T3 sequence (looked up): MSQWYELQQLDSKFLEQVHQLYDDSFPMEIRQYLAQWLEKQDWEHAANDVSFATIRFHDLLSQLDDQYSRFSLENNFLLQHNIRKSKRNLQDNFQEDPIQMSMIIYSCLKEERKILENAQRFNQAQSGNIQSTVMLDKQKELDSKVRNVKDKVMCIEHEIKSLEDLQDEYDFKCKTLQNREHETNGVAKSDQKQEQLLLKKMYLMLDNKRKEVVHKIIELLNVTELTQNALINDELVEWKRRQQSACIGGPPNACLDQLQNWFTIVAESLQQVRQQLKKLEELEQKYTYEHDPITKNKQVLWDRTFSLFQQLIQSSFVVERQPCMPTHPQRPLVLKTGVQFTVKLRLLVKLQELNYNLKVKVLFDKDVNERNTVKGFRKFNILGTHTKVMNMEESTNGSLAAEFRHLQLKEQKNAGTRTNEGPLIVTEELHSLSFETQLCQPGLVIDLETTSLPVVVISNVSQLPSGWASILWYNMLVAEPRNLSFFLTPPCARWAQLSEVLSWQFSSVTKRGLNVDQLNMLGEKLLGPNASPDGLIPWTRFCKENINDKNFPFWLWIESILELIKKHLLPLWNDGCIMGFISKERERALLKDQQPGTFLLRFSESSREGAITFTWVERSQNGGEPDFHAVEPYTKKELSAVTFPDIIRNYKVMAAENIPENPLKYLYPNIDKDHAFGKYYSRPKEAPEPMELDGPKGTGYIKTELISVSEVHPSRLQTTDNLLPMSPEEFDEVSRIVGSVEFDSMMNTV

[4] = target: T1, wild-type STAT1, overexpressed …; test: cell-based or functional assay

B1: Runx2, overexpressed (pLVX-Runx2) (natural protein, UniProt Q13950 1-521, looked up)
chain: MASNSLFSTVTPCQQNFFWDPSTSRRFSPPSSSLQPGKMSDVSPVVAAQQQQQQQQQQQQQQQQQQQQQQQEAAAAAAAAAAAAAAAAAVPRLRPPHDNRTMVEIIADHPAELVRTDSPNFLCSVLPSHWRCNKTLPVAFKVVALGEVPDGTVVTVMAGNDENYSAELRNASAVMKNQVARFNDLRFVGRSGRGKSFTLTITVFTNPPQVATYHRAIKVTVDGPREPRRHRQKLDDSKPSLFSDRLSDLGRIPHPSMRVGVPPQNPRPSLNSAPSPFNPQGQSQITDPRQAQSSPPWSYDQSYPSYLSQMTSPSIHSTTPLSSTRGTGLPAITDVPRRISDDDTATSDFCLWPSTLSKKSQAGASELGPFSDPRQFPSISSLTESRFSNPRMHYPATFTYTPPVTSGMSLGMSATTHYHTYLPPPYPGSSQSQSGPFQTSSTPYLYYGTSSGSYQFPMVPGGDRSPSRMLPPCTTTSNGSTLLNPNLPNQNDGVDADGSHSSSPTVLNSSGRMDESVWRPY
notes: Runx2; The anti-Runx2 blot also sees the endogenous Runx2 of the BMSCs; also called Runx2-OE; source: human BMSCs, lentiviral transduction (pLVX-Runx2), in lysate
- relative co-IP band intensity [1]: 0.286
- relative co-IP band intensity [2]: 0.845
- relative co-IP band intensity [3]: 0.582
- Osteocalcin protein (Western blot) in Runx2-OE + STAT1-OE BMSCs on the PCL/nHA/SL scaffold, rescued to STAT1-KD-like levels [4]: 0.474
